# Laboratory results from US20140294765A1 (COMPUGEN, published 2014).
# T1: Peptide 2, amino acid residues 118-135 of SEQ ID NO:10 (human)
# T1 construct: Immunisation peptide from the ECD of human LSR
# T1 peptide: CQDSVRTVRVVATKQGNA
# T2: mouse WT LSR protein expressed in stably transfected HEK293 or CHO-K1 cells (mouse, UniProt Q99KG5 36-594)
# T2 construct: Made with a C-terminal Flag tag (pcDNA3.1); Lysate for the Western blot; also called WT-Mouse LSR-flag protein
# T2 sequence: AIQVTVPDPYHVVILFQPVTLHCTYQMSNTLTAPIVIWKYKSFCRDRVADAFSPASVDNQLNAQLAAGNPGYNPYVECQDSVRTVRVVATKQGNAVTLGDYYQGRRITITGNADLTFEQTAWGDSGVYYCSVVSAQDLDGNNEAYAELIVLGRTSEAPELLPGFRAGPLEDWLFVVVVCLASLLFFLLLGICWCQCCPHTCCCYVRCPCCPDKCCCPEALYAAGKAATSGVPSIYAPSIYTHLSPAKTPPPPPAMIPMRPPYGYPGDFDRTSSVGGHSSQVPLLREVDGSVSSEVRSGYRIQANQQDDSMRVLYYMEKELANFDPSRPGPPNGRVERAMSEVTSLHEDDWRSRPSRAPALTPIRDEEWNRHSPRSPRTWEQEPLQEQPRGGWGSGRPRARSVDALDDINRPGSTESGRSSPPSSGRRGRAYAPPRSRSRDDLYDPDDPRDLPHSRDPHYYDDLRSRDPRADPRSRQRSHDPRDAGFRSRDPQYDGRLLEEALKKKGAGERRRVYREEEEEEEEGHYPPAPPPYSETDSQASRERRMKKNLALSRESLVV
# B1: 8C8, mouse IgG2a monoclonal antibody against human LSR (antibody, V domains shown)
# VH: DVKLVESGGGLVKLGGSLKLSCAASGFTFSSYYMSWVRQTPEKRLELVAAINSNGGSTYYPDTVKGRFTISRDNAKNTLYLQMSSLKSEDTALYYCARHDYYGSSFAMDYWGQGTSVTVSS
# VL: DIQMTQTTSSLSASLGDRVTISCRASQDISNYLNWYQQKPDGTVKLLIYYTSRLHSGVPSRFSGSGSGTDYSLTISNLEQEDIATYFCQQDSKHPWTFGGGTKLEIK
# notes: also called 8C8 mAb; mAb 8C8
# Legend:
# [1] = target: T1, Peptide 2, amino acid residues 118-135 …; assay: ELISA, hybridoma culture supernatant
# Method: FACS analysis was subsequently carried out with purified monoclonal Ab, 8C8, using a goat anti mouse-Alexa Fluor 488 (Invitrogen cat# A10667) as secondary Ab for detection.
# Culture supernatants of the hybridoma clones were analyzed by ELISA.
# [2] = target: T2, mouse WT LSR protein expressed in …; assay: flow cytometry on stably transfected CHO-K1 cells, 8C8 at 1, 2.5, 5 and 10 ug/ml, Geo Mean (FL1)
binder,measurement,setting,value
B1,binding result,[1],no binding
same,binding result,[2],binds
